Test results: patent EP2842965A1, “Neuromedin U analogs comprising serum albumin binding amino acid residue” (Gubra ApS, priority 2013, dated 2015)
Starred links: 1 amine or outer side, 2 acyl side, 3 side chain; linkers in the order of their positions; H or OH if unused. Residues, ends and D or L forms follow the SMILES beside them. Groups on a side chain read outwards from the residue. No end group written: not given here. *: point of attachment. γGlu = O=C(O)[C@H](CCC(=O)[*:2])N[*:1]; Palmitoyl = CCCCCCCCCCCCCCCC(=O)*

T1: Neuromedin U receptor 1 (UniProt Q9HB89 1-426, limits assumed)
T1 sequence (looked up): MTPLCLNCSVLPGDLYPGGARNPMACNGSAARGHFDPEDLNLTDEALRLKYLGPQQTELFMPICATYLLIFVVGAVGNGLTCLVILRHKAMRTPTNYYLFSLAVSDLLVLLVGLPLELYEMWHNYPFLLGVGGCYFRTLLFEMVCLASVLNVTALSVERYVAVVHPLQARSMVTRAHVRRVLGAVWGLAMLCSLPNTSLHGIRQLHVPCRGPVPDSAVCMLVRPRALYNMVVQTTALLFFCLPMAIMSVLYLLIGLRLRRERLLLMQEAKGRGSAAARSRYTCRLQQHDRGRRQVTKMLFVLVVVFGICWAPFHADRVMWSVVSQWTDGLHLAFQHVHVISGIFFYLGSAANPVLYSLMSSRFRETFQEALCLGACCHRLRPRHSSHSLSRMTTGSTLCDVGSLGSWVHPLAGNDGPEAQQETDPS

B1: SEQ ID NO 17 (NMU analog acylated at K4) (peptide)
peptide: FRVK([γGlu-Palmitoyl])EEFQSPFASQSRGYFLFRPRN-NH2
modifications: N-terminus assumed
SMILES: CCCCCCCCCCCCCCCC(=O)N[C@@H](CCC(=O)NCCCC[C@H](NC(=O)[C@@H](NC(=O)[C@H](CCCNC(=N)N)NC(=O)[C@@H](N)Cc1ccccc1)C(C)C)C(=O)N[C@@H](CCC(=O)O)C(=O)N[C@@H](CCC(=O)O)C(=O)N[C@@H](Cc1ccccc1)C(=O)N[C@@H](CCC(N)=O)C(=O)N[C@@H](CO)C(=O)N1CCC[C@H]1C(=O)N[C@@H](Cc1ccccc1)C(=O)N[C@@H](C)C(=O)N[C@@H](CO)C(=O)N[C@@H](CCC(N)=O)C(=O)N[C@@H](CO)C(=O)N[C@@H](CCCNC(=N)N)C(=O)NCC(=O)N[C@@H](Cc1ccc(O)cc1)C(=O)N[C@@H](Cc1ccccc1)C(=O)N[C@@H](CC(C)C)C(=O)N[C@@H](Cc1ccccc1)C(=O)N[C@@H](CCCNC(=N)N)C(=O)N1CCC[C@H]1C(=O)N[C@@H](CCCNC(=N)N)C(=O)N[C@@H](CC(N)=O)C(N)=O)C(=O)O
B2: SEQ ID NO 14 (NMU analog acylated at K6) (peptide)
peptide: FRVDEK([γGlu-Palmitoyl])FQSPFASQSRGYFLFRPRN-NH2
modifications: N-terminus assumed
SMILES: CCCCCCCCCCCCCCCC(=O)N[C@@H](CCC(=O)NCCCC[C@H](NC(=O)[C@H](CCC(=O)O)NC(=O)[C@H](CC(=O)O)NC(=O)[C@@H](NC(=O)[C@H](CCCNC(=N)N)NC(=O)[C@@H](N)Cc1ccccc1)C(C)C)C(=O)N[C@@H](Cc1ccccc1)C(=O)N[C@@H](CCC(N)=O)C(=O)N[C@@H](CO)C(=O)N1CCC[C@H]1C(=O)N[C@@H](Cc1ccccc1)C(=O)N[C@@H](C)C(=O)N[C@@H](CO)C(=O)N[C@@H](CCC(N)=O)C(=O)N[C@@H](CO)C(=O)N[C@@H](CCCNC(=N)N)C(=O)NCC(=O)N[C@@H](Cc1ccc(O)cc1)C(=O)N[C@@H](Cc1ccccc1)C(=O)N[C@@H](CC(C)C)C(=O)N[C@@H](Cc1ccccc1)C(=O)N[C@@H](CCCNC(=N)N)C(=O)N1CCC[C@H]1C(=O)N[C@@H](CCCNC(=N)N)C(=O)N[C@@H](CC(N)=O)C(N)=O)C(=O)O
B3: SEQ ID NO 5 (NMU analog acylated at K15) (peptide)
peptide: FRVDEEFQSPFASQK([γGlu-Palmitoyl])RGYFLFRPRN-NH2
modifications: N-terminus assumed
SMILES: CCCCCCCCCCCCCCCC(=O)N[C@@H](CCC(=O)NCCCC[C@H](NC(=O)[C@H](CCC(N)=O)NC(=O)[C@H](CO)NC(=O)[C@H](C)NC(=O)[C@H](Cc1ccccc1)NC(=O)[C@@H]1CCCN1C(=O)[C@H](CO)NC(=O)[C@H](CCC(N)=O)NC(=O)[C@H](Cc1ccccc1)NC(=O)[C@H](CCC(=O)O)NC(=O)[C@H](CCC(=O)O)NC(=O)[C@H](CC(=O)O)NC(=O)[C@@H](NC(=O)[C@H](CCCNC(=N)N)NC(=O)[C@@H](N)Cc1ccccc1)C(C)C)C(=O)N[C@@H](CCCNC(=N)N)C(=O)NCC(=O)N[C@@H](Cc1ccc(O)cc1)C(=O)N[C@@H](Cc1ccccc1)C(=O)N[C@@H](CC(C)C)C(=O)N[C@@H](Cc1ccccc1)C(=O)N[C@@H](CCCNC(=N)N)C(=O)N1CCC[C@H]1C(=O)N[C@@H](CCCNC(=N)N)C(=O)N[C@@H](CC(N)=O)C(N)=O)C(=O)O
B4: SEQ ID NO 11 (NMU analog acylated at K9) (peptide)
peptide: FRVDEEFQK([γGlu-Palmitoyl])PFASQSRGYFLFRPRN-NH2
modifications: N-terminus assumed
SMILES: CCCCCCCCCCCCCCCC(=O)N[C@@H](CCC(=O)NCCCC[C@H](NC(=O)[C@H](CCC(N)=O)NC(=O)[C@H](Cc1ccccc1)NC(=O)[C@H](CCC(=O)O)NC(=O)[C@H](CCC(=O)O)NC(=O)[C@H](CC(=O)O)NC(=O)[C@@H](NC(=O)[C@H](CCCNC(=N)N)NC(=O)[C@@H](N)Cc1ccccc1)C(C)C)C(=O)N1CCC[C@H]1C(=O)N[C@@H](Cc1ccccc1)C(=O)N[C@@H](C)C(=O)N[C@@H](CO)C(=O)N[C@@H](CCC(N)=O)C(=O)N[C@@H](CO)C(=O)N[C@@H](CCCNC(=N)N)C(=O)NCC(=O)N[C@@H](Cc1ccc(O)cc1)C(=O)N[C@@H](Cc1ccccc1)C(=O)N[C@@H](CC(C)C)C(=O)N[C@@H](Cc1ccccc1)C(=O)N[C@@H](CCCNC(=N)N)C(=O)N1CCC[C@H]1C(=O)N[C@@H](CCCNC(=N)N)C(=O)N[C@@H](CC(N)=O)C(N)=O)C(=O)O
B5: SEQ ID NO 8 (NMU analog acylated at K13) (peptide)
peptide: FRVDEEFQSPFAK([γGlu-Palmitoyl])QSRGYFLFRPRN-NH2
modifications: N-terminus assumed
SMILES: CCCCCCCCCCCCCCCC(=O)N[C@@H](CCC(=O)NCCCC[C@H](NC(=O)[C@H](C)NC(=O)[C@H](Cc1ccccc1)NC(=O)[C@@H]1CCCN1C(=O)[C@H](CO)NC(=O)[C@H](CCC(N)=O)NC(=O)[C@H](Cc1ccccc1)NC(=O)[C@H](CCC(=O)O)NC(=O)[C@H](CCC(=O)O)NC(=O)[C@H](CC(=O)O)NC(=O)[C@@H](NC(=O)[C@H](CCCNC(=N)N)NC(=O)[C@@H](N)Cc1ccccc1)C(C)C)C(=O)N[C@@H](CCC(N)=O)C(=O)N[C@@H](CO)C(=O)N[C@@H](CCCNC(=N)N)C(=O)NCC(=O)N[C@@H](Cc1ccc(O)cc1)C(=O)N[C@@H](Cc1ccccc1)C(=O)N[C@@H](CC(C)C)C(=O)N[C@@H](Cc1ccccc1)C(=O)N[C@@H](CCCNC(=N)N)C(=O)N1CCC[C@H]1C(=O)N[C@@H](CCCNC(=N)N)C(=O)N[C@@H](CC(N)=O)C(N)=O)C(=O)O

What follows are molecules tested against T2, Neuromedin U receptor 2 (NMUR2) (Homo sapiens, UniProt Q9GZQ4) (assay: Functional assay (IP3 SPA-ysi assay) in HEK293 cells transfected with NMUR2). Conditions: HEK293 cells transiently transfected with NMUR2; head says cAMP, method describes IP3 SPA readout.
T2 construct: expressed in transfected cells; host or cells: HEK293 cells, transient calcium phosphate transfection; the empty-vector control is pcDNA3
T2 sequence (Q9GZQ4 whole entry): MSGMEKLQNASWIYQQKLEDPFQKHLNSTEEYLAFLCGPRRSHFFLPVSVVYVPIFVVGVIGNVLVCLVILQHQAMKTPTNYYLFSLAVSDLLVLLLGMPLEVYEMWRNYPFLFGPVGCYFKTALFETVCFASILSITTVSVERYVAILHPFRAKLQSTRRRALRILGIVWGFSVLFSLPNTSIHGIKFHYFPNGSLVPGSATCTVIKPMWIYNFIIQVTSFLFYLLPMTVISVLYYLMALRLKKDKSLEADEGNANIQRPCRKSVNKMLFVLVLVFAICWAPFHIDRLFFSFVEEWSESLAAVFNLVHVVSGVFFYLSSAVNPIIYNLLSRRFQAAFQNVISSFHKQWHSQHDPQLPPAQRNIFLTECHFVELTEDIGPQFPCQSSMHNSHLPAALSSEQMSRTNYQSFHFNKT
Format: cell-based
Experimental: All compounds were dissolved in dimethyl sulfoxide (DMSO), and then water was added (total DMSO conc. was 80%). The stock concentration was 1 mM for all the compounds. Stocks were alliquoted and frozen -20°C.
The day before each assay a new standard row was prepared by dilution of the stock solution in assay buffer (1 mM acetic acid + 0.1% bovine serum albumin (BSA)). The following concentrations were prepared (depending on the ligand potency): 10^-5, 10^-6, 10^-7, 10^-7.5, 10^-8, 10^-8.5, 10^-9, 10^-10, 10^-11, 10^-12 M.
Cell cultures: The HEK293 cells are grown in (DMEM31966 glutamax supplemented with 10% FBS (fetal bovine serum) and 1% penicillin G and streptomycin) and incubated at 37°C with 10% CO2 in a humidified atmosphere. The cells were split as follows. HEK293 cells approximately 80% confluent was used. The cells were removed from the bottom of the bottle by removing the media (DMEM31966 glutamax supplemented with 10% FBS and 1% penicillin G and streptomycin), rinsed with 5 mL phosphate buffered saline (PBS) and shaken gently. The PBS was removed and cells were released from the bottom with trypsin (1-2 mL) and incubated for 2-3 min. The flasks were then turned gently to ensure complete release of the cells from the bottom. Then media was added to the cells, (5-8 mL was used to rinse the cells of the bottom, this process was repeated approximately 4 times using the same media). Cell suspension was then transferred to a new bottle (approximately 4 × 10^6 cells per 175 cm^2 flask) and 20 mL media was added. Cells were incubated at 37°C with 10% CO2 in a humidified atmosphere.
Transfection of cells: HEK293 cells were seeded out at the density of 8 × 10^6 cells per 175 cm^2 flask 1 day prior to the transfection. Before transfection of cells, the culture medium was aspirated and half of the standard volume was added. 40 µg receptor-containing plasmid (Neuromedin U receptor 1 (NMUR1) or Neuromedin U receptor 2 (NMUR2)) or "empty" vector plasmid (pcDNA3), as a negative control, was mixed with 60 µL […] CaCl2 and Tris-EDTA (TE) buffer (10 mM tris(hydroxymethyl)aminomethane hydrochloride (Tris HCl), 1 mM ethylenedinitrilotetraacetic acid (EDTA), pH 7.5) to a total volume of 480 µL. The mixture was added drop-wise to another tube containing 480 µL 2 × HEPES buffered saline (HBS buffer) (280 mM NaCl, 50 mM 4-(2-Hydroxyethyl)piperazine-1-ethanesulfonic acid (HEPES), 1.5 mM NaHPO4, pH 7.2) and left for 45 min at room temperature for DNA precipitation. Afterwards, the precipitate was added carefully to the cells and cells were incubated for 5 hours at normal culture conditions. The transfection was stopped by change of the DNA-containing medium with 20 mL of fresh cell culture medium.
Seeding of the cells in 96 well plates: One day after transfection, cells were harvested using trypsin as described above. The cells were seeded in a poly-D-lysine coated clear 96 well plate. 100 µL cell suspension 350.000 cells/mL was added. 3H-myo-inositol (5µL/mL) was added to each well yielding a concentration of 35000 cells/well. The cells were incubated overnight before assay procedure the following day.
IP3 SPA-ysi assay: The media was removed and the plates were washed with 200 µL of Hank's balanced salt solution (HBSS) (Gibco, Life Technologies). 100 µL of HBSS/10 mM LiCl was added and the plates were incubated 15 min at 37°C. 5 µL ligand was added to each well and the plate was incubated at 37°C for 70-90 min (incubation time was approximately 1 h and 16 min for all plates). The plates were placed on ice and 50 µL formic acid (10 mM) was added to each well. The plates was left on ice for at least 30 min. 20 µL was then transferred to a white 96 well plate and 80 µL yttrium silicate (YSi) SPA-beads RPNQ0010 (Perkin Elmer) solution (0.0125 g/mL) is added to each well. The plates were sealed and shaken on high speed for 30 min, then centrifuged for 5 min at 1500 rpm and counted with 8 hours delay in the top counter. […]

How did the EC50 turn out when `CCCCCCCCCCCCCCCC(=O)N[C@@H](CCC(=O)NCCCC[C@H](NC(=O)[C@H](CCC(N)=O)NC(=O)[C@H](Cc1ccccc1)NC(=O)[C@H](CCC(=O)O)NC(=O)[C@H](CCC(=O)O)NC(=O)[C@H](CC(=O)O)NC(=O)[C@@H](NC(=O)[C@H](CCCNC(=N)N)NC(=O)[C@@H](N)Cc1ccccc1)C(C)C)C(=O)N1CCC[C@H]1C(=O)N[C@@H](Cc1ccccc1)C(=O)N[C@@H](C)C(=O)N[C@@H](CO)C(=O)N[C@@H](CCC(N)=O)C(=O)N[C@@H](CO)C(=O)N[C@@H](CCCNC(=N)N)C(=O)NCC(=O)N[C@@H](Cc1ccc(O)cc1)C(=O)N[C@@H](Cc1ccccc1)C(=O)N[C@@H](CC(C)C)C(=O)N[C@@H](Cc1ccccc1)C(=O)N[C@@H](CCCNC(=N)N)C(=O)N1CCC[C@H]1C(=O)N[C@@H](CCCNC(=N)N)C(=O)N[C@@H](CC(N)=O)C(N)=O)C(=O)O` [SEQ ID NO 11] (H-FRVDEEFQK([γGlu-Palmitoyl])PFASQSRGYFLFRPRN-NH2) was run?
The EC50 was 94.3 nM.

“H-FRVDEEFQSPFASQSRGYFLFRPRN-NH2 [Human NMU, reference compound]” was tested. Which EC50 did it give?
Its EC50 is 4.26 nM.

Each molecule was assayed against T1, Neuromedin U receptor 1 (assay: cell-based or functional assay). Conditions: not given.

FRVDEEFQSPFASQSRGYFLFRPRN-NH2 [Human neuromedin U] was tested. Which “NMUR1 cAMP EC50” value did it give?
The value was 2.57 nM.

B1 was tested. Which “NMUR1 cAMP EC50” value did it give?
The value was 45.5 nM.

B2 was tested. Which “NMUR1 cAMP EC50” value did it give?
The value was 51.5 nM.

For B3, which “NMUR1 cAMP EC50” value is on record?
Its value is 195 nM.

Which “NMUR1 cAMP EC50” value does the source give for B4 here?
Its value is 74 nM.

For B5, which “NMUR1 cAMP EC50” value is on record?
Its value is 114 nM.
